Results published in patent US8598081B2, “Specific delivery of agrochemicals” (priority 2010, dated 2013).

B1: VHH 3E6: VHH binding gum arabic, potato lectin and leaf surface; SEQ ID NO:7 by order of the list (protein, listed as Lama glama)
VHH: QVQLQESGGGLVQPGGTLSLSCAASGFNVRWYGMGWFRQAPGKEREGVACISALQETTAYADSVKGRFTLSRDNPKNTLSLQMNNLQPEDTGVYYCATTDCDDSSRMTYTSYLGQGTQVTVSS
modifications: 3E6
B2: Microcapsules containing uvitex OB VHH 3E6: polyurea microcapsules containing the fluorescent tracer Uvitex OB, coupled with (monovalent) VHH 3E6 (conjugate)
VHH: B1 VHH
modifications: left off: small tags and cut ends
notes: polyurea microcapsules containing the fluorescent tracer Uvitex OB, coupled with (monovalent) VHH 3E6

Key:
[1] = system: potato leaf discs; test: VHH binding at different temperatures, leaf dip experiment; set-up: species or system potato (variety Desiree); settings: temperature range from 4° C. to 55° C.; 5 μg/ml in PBS; 1 hour
Description: In order to test applicability of VHH as binders for greenhouse or field applications where binding supposedly may occur at different and sometimes even extreme temperatures, a leaf dip VHH binding experiment at different temperatures was used. Temperatures used were 4° C., room temperature, 37° C., 55° C., or 70° C. ø 8 mm potato leaf discs (variety Desiree) were cut using a puncher tool. The leaf discs were equilibrated to different temperatures by washing three times with PBS at different temperatures. Hexahistidine-tagged VHH were diluted to 5 μg/ml in PBS at different temperatures, added to the corresponding equilibrated leaf discs, and binding of VHH was allowed for 1 hour at different temperatures. After incubation with VHH, leaf discs were washed five times with PBS at room temperature. Bound VHH were detected by incubation with monoclonal mouse anti-histidine antibodies directly conjugated with Alexa-488 fluorescent dye (Abd Serotec) in PBS for 1 hour at room temperature. Unbound anti-histidine antibodies were removed by washing five times with PBS at room temperature. Leaf discs were analyzed for bound VHH with microscopy. […] Please note that leaf discs severely suffer when submerged in PBS at 70° C. for 1 hour but that binding of VHH was still detected.

[2] = system: gum arabic; test: VHH binding to gum arabic in ELISA; set-up: species or system acacia tree
Description: Titration of VHH antibody fragments was performed on ELISA plates (Maxisorp, Nunc) coated with 100 μl per well 100 μg/ml gum arabic in 50 mM carbonate pH 9.6. Plates were coated at 4° C. overnight and coating was continued at room temperature for 1 hour on the next day. Plates were washed three times with PBS/0.05%-TWEEN®-20 and blocked with 5% skimmed milk in PBS for 1 hour. Four-fold serial dilutions of purified VHH antibody fragments were prepared in 1% MPBS/0.05%-TWEEN®-20 in polypropylene 96-well plates. Antibody concentrations ranged from 3 μg/ml to 12 ng/ml. Antibody dilutions were transferred to the gum arabic-coated plates and VHH antibody fragments were allowed to bind for 1 hour at room temperature. Bound VHH were detected with sequential incubations with monoclonal mouse anti-histidine antibodies (Abd Serotec) and rabbit anti-mouse IgG whole molecule antibodies conjugated with alkaline phosphatase (RaM/AP) (Sigma) in 1% MPBS/0.05%-TWEEN®-20. Unbound antibodies were removed by washing three times with PBS/0.05%-TWEEN®-20 after each antibody incubation. The plates were washed an additional two times with PBS and 100 μl pNPP disodium hexahydrate substrate (Sigma) was added to each well. The absorbance at 405 nm was measured and plotted as function of antibody concentration (see Table 1).

[3] = system: intact living potato pot plants; test: VHH binding to intact living plants; set-up: species or system potato (variety Desiree); settings: in PBS; 1 hour; FIG. 2: 5 μg/ml
Description: Binding of VHH to intact living plants was investigated on potato pot plants (variety Desiree). Compound leaves of intact living plants were submersed in solutions of hexahistidine-tagged VHH in PBS, or PBS alone for control conditions, leaving the compound leaves attached to the plants. VHH were allowed to bind for 1 hour. Next, the compound leaves still attached to the plants were washed five times in PBS in Erlenmeyer flasks. Different leaves and petiole sections were sampled. Bound VHH were detected by incubation with monoclonal mouse anti-histidine antibodies directly conjugated with Alexa-488 fluorescent dye (Abd Serotec) in PBS for 1 hour. Unbound anti-histidine antibodies were removed by washing five times with PBS. Whole leaves, leaf discs, or petiole sections were analyzed for bound VHH with microscopy.

[4] = ELISA-like assay of VHH-coupled microcapsules, unrelated antigen-coated wells; format: binding; settings: uvitex OB microcapsules
Description: Polyurea microcapsules were produced by interfacial polymerization. With the objective to generate functionalized polyurea microcapsules, VHH were coupled to microcapsules containing either the insecticide lambda cyhalothrin or the fluorescent tracer molecule Uvitex OB and a shell with incorporated lysine to surface-expose carboxylic acid residues. Lambda cyhalothrin was dissolved in benzyl benzoate in concentrations between 30% and 66% before encapsulation. Alternatively, a core of 1.5% Uvitex in benzyl benzoate was used for easy fluorescent visualization of microcapsules. Toluene diisocyanate (TDI) and polymethylenepolyphenylene isocyanate (PMPPI) were dissolved in the oil phase in different ratios and concentrations in the oil phase to produce desired shell characteristics. Stirring speed for the emulsion was varied to control droplet size and consequently microcapsule diameter. Microcapsules with approximate diameters of 5 μm, 10 μm, or 50 μm were successfully produced. Bifunctional lysine and trifunctional diethylene triamine (DETA) were used in different ratios and/or added sequentially during encapsulation to on the one hand maximize amounts of carboxylic acids on the microcapsules' surface and on the other hand obtain sufficient strength of capsule shells. Microcapsules were washed with water after production and stored as microcapsule suspensions in water. The microcapsules were washed with 100 mM MES, 500 mM NaCl, pH 6.0 immediately before coupling of VHH using a vacuum-tight filter flask and P 1.6 filter funnel (Duran). Alternatively, glass filter holders with 0.45 μm disposable membrane filters (Millipore) or 0.45 μm 96-well deep-well filtration plates (Millipore) were used. Couplings of VHH to microcapsules were performed using carbodiimide-mediated couplings using a one-step procedure, a two-step procedure without N-hydroxysuccinimide (NHS), or a two-step procedure with NHS. The major difference between one-step coupling and two-step coupling procedures is the occurrence of cross-linking of VHH in one-step coupling procedures. The protocols for the three procedures are largely similar and differ as follows. For one-step couplings VHH were added to washed microcapsules and 1-Ethyl-3-[3-dimethylaminopropyl]carbodiimide Hydrochloride (EDC) (Pierce) was added and coupling reaction was allowed for 2 hours at room temperature. For two-step couplings washed microcapsules were first activated with EDC in the presence or absence of NHS. Excess unreacted EDC (and NHS) were removed by quick sequential washes with ice-cold buffers and VHH were added and allowed to react with activated carboxylic acids on microcapsule shells. For ø 10 μm microcapsules 2-20 μg VHH were coupled per mg microcapsules. […]

Molecule | binding to leaf discs at different temperatures [1] | absorbance at 405 nm ([2]; Table 2, gum arabic coating, VHH 3 μg/ml) | absorbance at 405 nm ([2]; [VHH] 3 μg/ml (200 nM), gum arabic − (well without gum arabic)) | binding to intact living plant (leaves attached to potato pot plant submerged in VHH solution) [3] | Area of bound microcapsules ([4]; no coating (second series, with unrelated antigen rows), surface coverage 100%) | Area of bound microcapsules ([4]; unrelated antigen, surface coverage 4%) | Area of bound microcapsules ([4]; unrelated antigen, surface coverage 20%) | Area of bound microcapsules ([4]; unrelated antigen, surface coverage 100%)
B1 | detectable binding | 0.882 | 0.090 | binding leaf surface, stomata, glandular trichomes, and leaf hairs | – | – | – | –
B2 | – | – | – | – | 68.181 | 23.525 | 47.906 | 84.508
